Test results: US20040209282A1

What was measured:
[1] = molecular target: 38C13 IgM surface receptor (idiotype receptor) of 38C13 B lymphoma cells; test: cell capture microarray, previously frozen 38C13 cells, microscopy
[2] = molecular target: purified IgM antibody (38C13); test: antibody microarray on FAST slide, goat anti-mouse IgM-HRP detection, chemiluminescence
[3] = molecular target: 38C13 IgM surface receptor (idiotype receptor) of 38C13 B lymphoma cells; test: antibody microarray probed with 38C13 cell extract, goat anti-mouse IgM-HRP detection
[4] = molecular target: 38C13 IgM surface receptor (idiotype receptor) of 38C13 B lymphoma cells; test: cell capture microarray, 38C13 cells growing in culture, no washing, microscopy

lowest printed antibody concentration at which bound cells were detected [1]: 6.25 µg/mL | IgM concentration at which a strong signal was seen [2]: 0.1 µg/mL | lowest spotted S1C5 concentration giving a strong signal [2]: 25 µg/mL | extract dilution at which 38C13 IgM was detected (fold dilution (1:x)) [3]: 2000 | lowest printed S1C5 concentration at which 38C13 IgM of the extract was detected [3]: 50 µg/mL | lowest printed antibody concentration at which bound cells were detected [4]: 3.12 µg/mL
Substance: S1C5 anti-idiotype monoclonal antibody (anti-IgM antibody)
